Source: paper PMC12203963

B1: ALFA-tagged IRT1 (iron-regulated transporter 1), wildtype [Arabidopsis thaliana] / CIPK23 fused to the mCitC fragment [not stated] (parent)
chain 1: MASRTTPSRSTPSRSTPSGSSSGGRTRVGKYELGRTLGEGTFAKVKFARNVENGDNVAIKVIDKEKVLKNKMIAQIKREISTMKLIKHPNVIRMFEVMASKTKIYFVLEFVTGGELFDKISSNGRLKEDEARKYFQQLINAVDYCHSRGVYHRDLKPENLLLDANGALKVSDFGLSALPQQVREDGLLHTTCGTPNYVAPEVINNKGYDGAKADLWSCGVILFVLMAGYLPFEDSNLTSLYKKIFKAEFTCPPWFSASAKKLIKRILDPNPATRITFAEVIENEWFKKGYKAPKFENADVSLDDVDAIFDDSGESKNLVVERREEGLKTPVTMNAFELISTSQGLNLGSLFEKQMGLVKRKTRFTSKSSANEIVTKIEAAAAPMGFDVKTNNYKMKLTGEKSGRKGQLAVATEVFQVAPSLYMVEMRKSGGDTLEFHKFYKNLTTGLKDIVWKTIDEEKEEGTDGGGTNGAMANRTIAKQST
chain 2: ISPATSTAPEECGSESANPCVNKAKALPLKVIAIFVILIASMIGVGAPLFSRNVSFLQPDGNIFTIIKCFASGIILGTGFMHVLPDSFEMLSSICLEENPWHKFPFSGFLAMLSGLITLAIDSMATSLYTSKNAVGIMPHGHGHGHGPANDVTLPIKEDDSSNAQLLRYRVIAMVLELGIIVHSVVIGLSLGATSDTCTIKGLIAALCFHQMFEGMGLGGCILQAEYTNMKKFVMAFFFAVTTPFGIALGIALSTVYQDNSPKALITVGLLNACSAGLLIYMALVDLLAAEFMGPKLQGSIKMQFKCLIAALLGCGGMSIIAKWA

Variants of: B1
Assay: trimolecular fluorescence complementation (TriFC)
Conditions: with CIPK23 fused to the mCitC fragment; parent: 74; read off a plot

**Q.** How did the response turn out when chain 2 D151Q was run?
**A.** 67

**Q.** With chain 2 H140A H142A as the variant, how does the response read?
**A.** 46

**Q.** Which response does the source give for chain 2 H140A H142A D151Q here?
**A.** 23
